Laboratory results: patent US20250296984A1, “THERAPEUTIC AND DIAGNOSTIC AGENTS AND USES THEREOF” (priority 2022, published 2025)

Experiments:
breast cancer tissues = assay: IHC in a breast cancer cohort (primary tumors, metastases, NAT); set-up: species or system human
From the text: FIG. 13. The HCMV US28 expression was studied by immunohistochemistry (IHC) and in situ hybridisation (ISH) in a breast cancer cohort. […] Most tumor cells in this sample stained positively for the US28-13-5G6-1D3 rAb (brown colour). […] C. […] The arrows point out some positive HCMV DNA signals in the figure. […] A colour version of FIG. 13 is provided on the page after the non-colour version.
FIG. 14. […] B. Most cancer cells in the same sample were negative for the MAB810R staining. C. […] The arrows point out such positive HCMV DNA signals. The HCMV DNA was not seen in the cytoplasm of the tumor cells. D. The negative control anti-IgG Ab staining for the same sample was negative. A colour version of FIG. 14 is also provided.
FIG. 15. The US28 staining and HCMV ISH were negative in many normal adjacent tumor (NAT) breast tissues as exemplified in the figure with the sample BR1008b_J6. […] C. […] D. The IgG staining was also negative. […] Thus, the samples are exposed to exactly the same staining conditions and antibody/DNA probe concentrations. […] A colour version of FIG. 15 is also provided.
FIG. 16. A. The IHC staining of the primary breast cancer samples with US28-13-5G6-1D3 rAb were specific and positive in ˜73% of the 41 studied primary breast tumor samples. […]

[1] = tested on: human primary adrenal cortical, kidney epithelial, cardiac microvascular endothelial, liver epithelial and vein smooth muscle cells; assay: Flow cytometry off-target surface binding to human primary cells; conditions: all five cell types, PE-labelled antibody
Experimental: FIG. 19. A. Flowcytometry analysis with the 28-13-5G6-1D3-PE antibody were conducted on various human primary cells to exclude general off-target binding to the surface of these cell types. The following cell lines were studied: human primary adrenal cortical cells, human primary kidney epithelial cells, human primary cardiac microvascular endothelial cells, human primary liver epithelial cells and human primary vein smooth muscle cells. […] B. Original human primary cardiac cells were not available, and human cardiac tissue samples were therefore studied for staining of 13-5G6-1D3 by immunohistochemistry. […] If there were HCMV infections present in the human heart, they were always of productive infection type. […] The positive 13-5G6-1D3 and HCMV ISH results are marked with arrows in the figure. A colour version of FIG. 19 is also provided.

[2] = tested on: HCMV infected human lung tissue; assay: Immunohistochemistry (IHC) on HCMV infected human lung tissue and controls; conditions: HCMV positive control slide, FIG. 12
Experimental: Cytomegalovirus (CMV) control slides containing CMV positive lung tissue and CMV negative myometrium (product number #3240A) were obtained from Newcomer Supply Inc., Middleton, WI 53562-2579, USA. Tissue micro-arrays (TMAs) were obtained from US Biomax Inc., Derwood, MD 20855, USA, and included tumor tissues #BR1008b, #BS17016c, #BCN721b and normal tissues #FDA662a and heart tissues #HEN241a.
The paraffin sections were sequentially immersed into a. 100% xylene three times (5 min each); b. 100% ethanol twice (2 min each); c. 95% ethanol twice (2 min each). The slides were rinsed twice in water for 5 min to remove ethanol. […], the slides were immersed in 3% H2O2 for 5 minutes and washed thereafter twice (2×) with distilled water. The slides were then immersed in the working citrate buffer (pH 6.0) and covered with a lid. The buffer was heated in the microwave until it had boiled, and then kept in the steamer for 15 min.
The sections were cooled at room temperature for 30 min and washed with PBS. 5% BSA blocking solution was then added to the HIER treated samples and they were incubated at 37° C. for 30 min. […] Digitized pictures were taken by Olympus VS120 scanner and analyzed by using OlyVia 3.2 software (Olympus Corporation, 20101 Tokyo, Japan) by senior Pathologist.

[3] = target: T1, Peptide-N […] (SEQ ID NO: 177), HCMV US28 ECD1 (Human cytomegalovirus, UniProt P69332); assay: ELISA, binding to Peptide-N (Bio-Peptide-N / Peptide-N-BSA coating)
T1 construct: Peptide-N was prepared via chemical synthesis: […]; made in house; host or cells: chemical synthesis
Experimental: Microtiter plate wells were coated with 100 μl of the solution containing: (i) Bio-Peptide-N; or (ii) Bio-Peptide-1 and Bio-Peptide-2; at a concentration of between 1-10 μg/ml in coating buffer, consisting of Na2CO3, 1.5 g and NaHCO3, 2.93 g in 1 L of distilled water in pH 9.6, and then incubated for 1-2 hours at room temperature. The plate was washed 3 times in wash buffer consisting of PBS containing 0.05% v/v Tween-20 and blotted with paper towels thereafter. 150 μl of blocking solution containing Phosphate buffered saline (PBS) containing 1% w/v BSA, was added to each well and the plate was incubated for 2 hours at 37° C. The wells were washed 4 times in wash buffer and blotted on paper towels after the last wash. 100 μl of antibody dilution was added to each well and the plate was incubated for 1 hour at 37° C. and thereafter washed 3 times in wash buffer. 100 μl enzyme-conjugated secondary antibody (appropriately diluted in wash buffer) was added to each well and the plate was incubated for 1 hour at 37° C. The wells were then again washed 3 times in wash buffer and blotted with paper towels after the last wash. […] The absorbance values were read immediately at the appropriate wavelength and the data analyzed by Cmax Plus, Molecular Devices, San Jose, CA 95134, USA,

B1: US28-13-5G6-1D3: monoclonal antibody against ECD3 of HCMV US28; VH SEQ ID NO: 12, VL SEQ ID NO: 18; rAb is the recombinant product (antibody, V domains shown)
VH: EVKLVESGGGLVQPGGSLRLACATSGFTFTDYYMSWVRQPPGKALEWLGFIRSKANGYTTEYSASVKGRFTISRDNSQSILYLQMNTLRSEDSATYYCARDERRTAWLAYWGQGTLVTVSA
VL: DVLMTQTPLSLPVSLGDQASISCRSSQSIVHSNGNTYLDWYLQKPGQSPKLLIYKVSNRFSGVPDRFSGSGSGTDFTLKISRVEAEDLGVYYCFQGSHVPTWTFGGGTKLEIK
modifications: Mature form of VH sequence of 1D3, without the leader sequence; Mature form of VL sequence of 1D3, without the leader sequence
notes: monoclonal antibody against ECD3 of HCMV US28; rAb is the recombinant product
Breast cancer tissues; all samples
  staining of TNBC (n=7) and HER2 positive (n=11) metastases: positive
Breast cancer tissues; hormone receptor positive cancers, of 30 metastases
  number of negative metastasis samples: 2

B2: 13-5G6-1D3: mouse monoclonal IgG1 kappa antibody against US28 ECD3; VH SEQ ID NO: 12, VL SEQ ID NO: 18 (antibody, V domains shown)
VH: EVKLVESGGGLVQPGGSLRLACATSGFTFTDYYMSWVRQPPGKALEWLGFIRSKANGYTTEYSASVKGRFTISRDNSQSILYLQMNTLRSEDSATYYCARDERRTAWLAYWGQGTLVTVSA
VL: DVLMTQTPLSLPVSLGDQASISCRSSQSIVHSNGNTYLDWYLQKPGQSPKLLIYKVSNRFSGVPDRFSGSGSGTDFTLKISRVEAEDLGVYYCFQGSHVPTWTFGGGTKLEIK
modifications: Mature form of VH sequence of 1D3, without the leader sequence; Mature form of VL sequence of 1D3, without the leader sequence
[1]
  surface binding to human primary cells: < 1%

B3: 13-5G6-1D3 rAb: recombinant antibody product of US28-13-5G6-1D3 produced in HEK293-F cells (antibody)
heavy: EVKLVESGGGLVQPGGSLRLACATSGFTFTDYYMSWVRQPPGKALEWLGFIRSKANGYTTEYSASVKGRFTISRDNSQSILYLQMNTLRSEDSATYYCARDERRTAWLAYWGQGTLVTVSAAKTTPPSVYPLAPGSAAQTNSMVTLGCLVKGYFPEPVTVTWNSGSLSSGVHTFPAVLQSDLYTLSSSVTVPSSTWPSETVTCNVAHPASSTKVDKKIVPRDCGCKPCICTVPEVSSVFIFPPKPKDVLTITLTPKVTCVVVDISKDDPEVQFSWFVDDVEVHTAQTQPREEQFNSTFRSVSELPIMHQDWLNGKEFKCRVNSAAFPAPIEKTISKTKGRPKAPQVYTIPPPKEQMAKDKVSLTCMITDFFPEDITVEWQWNGQPAENYKNTQPIMDTDGSYFIYSKLNVQKSNWEAGNTFTCSVLHEGLHNHHTEKSLSHSPGK
light: DVLMTQTPLSLPVSLGDQASISCRSSQSIVHSNGNTYLDWYLQKPGQSPKLLIYKVSNRFSGVPDRFSGSGSGTDFTLKISRVEAEDLGVYYCFQGSHVPTWTFGGGTKLEIKRADAAPTVSIFPPSSEQLTSGGASVVCFLNNFYPKDINVKWKIDGSERQNGVLNSWTDQDSKDSTYSMSSTLTLTKDEYERHNSYTCEATHKTSTSPIVKSFNRNEC
[2]
  IHC staining of HCMV infected cells in lung tissue: strong cytoplasmic staining

B4: 7B1F3: mouse IgG1 kappa antibody against US28 ECD1 Peptide-N; VH SEQ ID NO: 211, VL SEQ ID NO: 213 (antibody, V domains shown)
VH: EVQLQQSGAELAKPGASVKMSCKASGYTFTNYWMHWVKQRPGQGLEWIGYVNPRTGYTEYNQKFKDKATLTADKSSRTAYMQLSSLTSEDSAVYSCARILNGTGFAYWGQGTLVTVSA
VL: DIVLTQSPSSLTVSVGEKFTMSCKSSQSLLYSSNQKNYLAWYQQKPGQSPKLLIYWASTRESGVPDRFTGSGSGTDFTLAISSVKPEDLAIYYCQQYYSFPLTFGAGTKLEIK
modifications: Mature form of VH sequence of 7B1F3, without the leader sequence; Mature form of VL sequence of 7B1F3, without the leader sequence
[3]; ELISA absorbance, ECD1 subclones
  absorbance, Coating: Peptide-N-BSA: 2.7989
[3]; recombinant antibodies
  qualitative ELISA binding to Bio-Peptide-N: equal, strong and high binding affinity
